Experimental data as given in patent US20230159654A1 (INTERNATIONAL DRUG DEVELOPMENT BIOTECH, published 2023).

Legend:
human Clq [1] = molecular target: T1, human Clq (human, UniProt P02745 23-245; P02746 28-253; P02747 29-245); test: ELISA, MAb coated on plate, human Clq in solution, detected with anti-human Clq peroxidase conjugate
T1 construct: also called Clq complement; C1q
Procedure: (§1) The Binding of Human Clq to MAbs was assessed by an ELISA binding assay. The 96-well plates (Nunc) were coated overnight at 4° C. with varying MAb concentrations. After washing, the plates were blocked with PBS-5% BSA for 1 h, and incubated for 1 h with 0.2 μg/ml of recombinant human Clq (Abd Serotec) or 2.5 μl of natural human complement (Sigma). Then, 100 μl of a 1/500 dilution of sheep anti-human Clq peroxidase-conjugated Ab (Abd Serotec) added and incubated for 1 h. The plates were developed with 100 μl per well of TMB substrate (Uptima Interchim). After H₂SO₄ addition, the OD was measured at 450 nm/630 nmusing a MRX II microplate reader.

human Clq [2] = molecular target: T1, human Clq; test: ELISA, MAb coated on plate, human Clq in solution, detected with anti-human Clq peroxidase conjugate; chR007 Fc0 is the weaker reference
Procedure: as §1

T1 sequence (P02745 23-245 limits assumed, chain 1 of 3): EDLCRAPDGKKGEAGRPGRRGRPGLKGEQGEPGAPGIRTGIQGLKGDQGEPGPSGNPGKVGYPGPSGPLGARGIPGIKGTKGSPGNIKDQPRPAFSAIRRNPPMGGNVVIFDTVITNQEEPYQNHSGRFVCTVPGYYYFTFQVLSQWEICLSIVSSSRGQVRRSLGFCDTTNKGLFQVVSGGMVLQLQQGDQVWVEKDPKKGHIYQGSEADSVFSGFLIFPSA
T1 sequence (P02746 28-253 limits assumed, chain 2 of 3): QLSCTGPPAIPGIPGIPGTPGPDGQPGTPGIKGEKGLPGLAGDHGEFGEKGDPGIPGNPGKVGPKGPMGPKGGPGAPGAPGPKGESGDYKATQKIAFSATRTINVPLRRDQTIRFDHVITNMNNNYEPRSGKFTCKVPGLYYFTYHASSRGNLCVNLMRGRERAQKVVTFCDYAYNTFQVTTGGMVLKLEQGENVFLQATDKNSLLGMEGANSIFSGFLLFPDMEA
T1 sequence (P02747 29-245 limits assumed, chain 3 of 3): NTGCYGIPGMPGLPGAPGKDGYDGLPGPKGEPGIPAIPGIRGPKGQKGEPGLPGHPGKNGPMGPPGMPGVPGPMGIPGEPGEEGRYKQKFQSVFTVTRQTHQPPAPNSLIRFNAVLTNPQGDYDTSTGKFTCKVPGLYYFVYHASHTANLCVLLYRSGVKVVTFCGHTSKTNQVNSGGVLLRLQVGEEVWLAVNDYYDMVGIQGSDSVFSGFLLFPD

binding result (human Clq [1]) | binding result (human Clq [2]) | Binder
binds | – | chR007 Fc24 (antibody, human IgG1, kappa, also called chimeric chR007 Fc24) heavy: EVKLEESGGGLVQPGGSMKLSCVASGFTFSNYWMNWVRQSPEKGLEWVAEIRLKSNNYATHYAESVKGRFTISRDDSRSSVYLQMNNLRAEDTGIYYCTRDWEFAYWGQGTLVTVSSASTKGPSVFPLAPSSKSTSGGTAALGCLVKDYFPEPVTVSWNSGALTSGVHTFPAVLQSSGLYSLSSVVTVPSSSLGTQTYICNVNHKPSNTKVDKKVEPKSCDKTHTCPPCPAPELLGGPSVFLLPPKPKDTLMISRTPEVTCVVVDVSHEDPEVKFNWYVDGVEVHNAKTKPPEEQYNSTLRVVSLLTVLHQDWLNGKEYKCKVSNAALPAPIAKTISKAKGQPREPQVYTLPPSRDELTKNQVSLTCLVKGFYPSDIAVEWESNGQPENNYKTTPLVLDSDGSFFLYSKLTVDKSRWQQGNVFSCSVMHEALHNHYTQKSLSLSPGK light: DIVLTQSPASLAVSLGQRATISCRTSESVDNYGSSSMNWFQQKPGQPPKLLIYRASNLDSGIPARFSGSGSRSDFTLTINPVEADDVATYYCQQSNEDLPYTFGGGTKLEIKRTVAAPSVFIFPPSDEQLKSGTASVVCLLNNFYPREAKVQWKVDNALQSGNSQESVTEQDSKDSTYSLSSTLTLSKADYEKHKVYACEVTHQGLSSPVTKSFNRGEC
– | binds | chR007 Fc0 (antibody, human IgG1, kappa, Chimeric anti-CD5 IgG1 with native human IgG1 Fc; also called native chimeric MAb chR007 Fc0) heavy: not shown light: DIVLTQSPASLAVSLGQRATISCRTSESVDNYGSSSMNWFQQKPGQPPKLLIYRASNLDSGIPARFSGSGSRSDFTLTINPVEADDVATYYCQQSNEDLPYTFGGGTKLEIKRTVAAPSVFIFPPSDEQLKSGTASVVCLLNNFYPREAKVQWKVDNALQSGNSQESVTEQDSKDSTYSLSSTLTLSKADYEKHKVYACEVTHQGLSSPVTKSFNRGEC
binds | – | humanized 7Hz116 Fc24 (antibody, human IgG1, kappa, V domains shown) VH: EVQLVESGGGLVQPGGSLKLSCAASGFTFSNYWMHWVRQASGKGLEWVAEIRSKANSYATAYAASVKGRFTISRDDSKNTAYLQMNSLKTEDTAVYYCTRDWEFAYWGQGTLVTVSS VL: DIVMTQSPDSLAVSLGERATINCKSSQSVDNYGSSSLAWYQQKPGQPPKLLIYRASNLDSGVPDRFSGSGSGTDFTLTISSVQAEDVAVYYCQQSNEDLPYTFGQGTKLEIKR
